The source of these data is PMC12307675.

The target in this test is recombinant SARS-CoV-2 spike protein (SARS-CoV-2) (UniProt P0DTC2). In words: SPR.
Turning to “HMGB1-B box (aa 89–162), 6x His-tagged (from UniProt P09429 89-162) (domain or fragment)”, the dissociation constant (Kd) stood at 1020 nM.

Take “acidic C-tail-deleted HMGB1 (HMGB1-ΔC, aa 1–186), 6x His-tagged (from UniProt P09429 1-186) (domain or fragment)”: the Kd was 1380 nM.

For “HMGB1-A box (aa 1–79), 6x His-tagged (from UniProt P09429 1-79) (domain or fragment)”, the Kd was determined as 6100 nM.

In the case of “full-length HMGB1 (HMGB1-WT), 6x His-tagged (from UniProt P09429 1-215) (natural protein)”, the Kd was 3550 nM.
